Experimental data reported in the DeepSol protein solubility set.

Experiment: soluble on expression in E. coli; label from the status in PepcDB or PDB records

Soluble on expression in E. coli, not soluble:
MGSDKIHHHHHHMFVPAPDATITNCRNCPLRRKPLFLPFSDSELSFMEQFKVGELVVAPGVTLLEEGQGSAHLFTVLSGLGIRSTMLENGRRQVINFLFPGDFIGLQAGLAGEMRHSVESTTTMVLCVFNRADLWDLFREEPERAYDLTWIAAVEEHFLGETIASLGQRDATERLAWALLRIHERLSAIGLAERGRVPMPWRQQDLADALGLSLVHTNKTIRRLRETGHALWEGGTLFVDRERLATLALADPDRPRRRPLI
MGSDKIHHHHHHMGDDILSQEEVDALLRGVSGEDEDDDGGQDAQGVRGYDIGRQERIVRGRMPTLEIINERFARNLRIGLFNFLRRNAEISVGPVRVQKYSEFIRNLVVPTNLNLVHVKPLRGTGLLIFDPDLVFLIVDNLFGSDGRYHVRVEGRDFTPTEQRIIHRLLEVVFTECQKAWEPVYPIEFVYLRSEMNTQFANIATPTEVVVAMTFHIELGAGGGDFHICLPYSMVEPIRDLLSSTMQADRTEVDNRWVNLMTHQVQAAEVELVASLAHAKVTLGQILNLKNGDVVMIEIPERVEADVSGIPVFEASYGTVQGRYALKVEKILAGTNEFLESPGEHEQ
MGSDKIHHHHHHMGEAIEVAEGALWMRLPLPMKLDHVNVYAFDEGDSWTVVDTGMSSNKTRRIWEQLMAGPLGGKPVRRVVVTHHHPDHIGNAGWFQSEHGAELVTTRTAWLFARMLTLDVQESWPEETLAYYRSAGMDPEVYDTRKADRPFNFADTVYPMPLGFTRVQQGDVFRMGGRDWDIHMGNGHAPEHATLWSRDDNLVLTGDQVLSSISPNIGVYATEPEADPLAEWLEACERLAALARPEHLALGGHKLPFTRLPLRMRQLIDNHHGALERLMEFLETPKSAAECFPTLFKRTIGPGEYGLALVEAVAHVNHLYRTGQVTRTRRSDEAWVYQRR
MGSDKIHHHHHHMGEYLTLPMEVYSGILVTHEGVFHGDLIVEEMAFEESRVEKDDFVISPTFFNAHTHLGDAALREAPRLDLVSIVGPGGYKHRMLSQIDSKTLRQEVELEVRISRDAGTSHFLDFREGGKAGLEIVKGIDGVLPLARPTSVEEAEEVEAFGFAYSSARDHDLKLMEEVREIARRRKMLFAIHAGEKDCADVDAALALEPDFVVHMNSCPEKIREFVEAEIPIVSCIRSNAFFGLLNKKSYELLSEYEKWMLGTDNAMISTASMLDEMHFAAYLIGKEKAILRAATASYAVFGFRHGYVVFNRNCSFRRTSDPLLTLVRRAGVKDIERVLIL
MGSDKIHHHHHHMGGKWMRWMAPAPPASNVPKCSCHRLLGKEPPNDSKDCRPGSLTGRALFSDVPRGMAKDVFQVHCVSATGRRVINKKIKRAKLLAFLETLPRCVVGMEACGSAHHWGGELRKLGHDVRLMPAAYVKLYVKRGKTDAADAEAICEAVRRQSMRFVEIESEDQQAVLAIHSARDLVVRQRTQVVNMIRSILREFGHILPTGIEAVSKFAREHGTEDQLDMPEIADGILGVMCHQLNGLNARVDGLTKLIEQHAWLDADARRLMRMPGIGPITASAIVATIGDAKQFETGRDLATWLGLTPLNKSSGGKERLGRIIKKGDRYIRKLLIIGMTSRSLMAKNKPEKADTWTAKLPDEQPFRLATVAMANKSARIIWALLTKREEYRQPIV
MGSDKIHHHHHHMGHQEFMSQEEVDALLKGVTGETDTVDEQRDLSSVRPYNIATQERIVRGRMPGLEIINDRFARLLRIGIFNFMRRTAEISVSQVKVQKYSEFTRNLPIPTNLNLVHVKPLRGTSLFVFDPNLVFFVVDNLFGGDGRFHTRVEGRDFTATEQRIIGKLLNLVFEHYATAWKSVRPLQFEFVRSEMHTQFANVATPNEIVIVTQFSIEFGPTGGTLHICMPYSMIEPIRDVLSSPIQGEALEVDRRWVRVLSQQVQSAEVELSANLAEIPSTFEKILNLRAGDVLPLEIEDTITAKVDGVPVMECGYGIFNGQYALRVQKMISASDTMKEGGYE
MGSDKIHHHHHHMGIGIIIASHGKFAEGIHQSGSMIFGEQEKVQVVTFMPNEGPDDLYGHFNNAIAQFDADDEVLVLADLWSGSPFNQASRVMGENPERKMAIITGLNLPMLIQAYTERMMDANAGVEQVAANIIKESKEGIKALPEELNPVVEATPVAGVPADVPAEVKQSGSIPEGTVIGDGKLKINLARIDTRLLHGQVATAWTPASKANRIIVASDEVSKDELRKQLIKQAAPGGVKANVVPISKLIEVAKDPRFGNTRALILFETVQDALRAIEGGVEIPELNVGSMAHSTGKTMVNNVLSMDKDDVAAFEKLRDLGVSFDVRKVPNDAKKNLFDLINKANVK
MGSDKIHHHHHHMGIKYSFTRELRTELIDVDKVFKENLLPWWDDIYNYIKMLNEDFTWNQLPPLVYIVYRYLGLDRSISISMTNIFKTLYLANSIHGMVKDDKEGQKYDQDLQFAILIGDYMFGRMLKLLVEAGADKLVGLFAVMMAEINEGQVMERKLQAAHKDVLQKTRGSIYATAFETAGHLSGMKGILLENCRQLGLNLGMSIELMNCDISREEVLVYIHEAERNYKIINQYQRMVNSNLEAAINEVHSLLCNIENVAVV
MGSDKIHHHHHHMGILSDKDIAYLKDLFGKELKRKVKIVFFKTEDKTRCQYCEITEQVLEELVSVDPKLELEIHDFDSDKEAVEKYQVEMVPATILLPEDGKDYGIRFYGVPSGHEFGTLIQDIITVSEGKPQLSEESIQKLQSLEEPIRISVFVTPTCPYCPRAVLMAHNMAMASDKIIGEMIEANEYWELSEKFGVSSVPHIVVNRDPSKFFVGAYPEKEFINEVLRLAKG
MGSDKIHHHHHHMGIYFNPGNGSFTKDKNSQLYIDKTGLIEYLNRVICTNANCISVSHARRFGKSHAAGMIDAYYSRGCDSSELFADSEIAAKDSYSAHLNKYNVIHIDVSSFWDAYKDNVIEKIQEYIYDELKQVYGDQIDYTKMISAVLMSVYNISDIPFVIIIDEWDCVIRNGGNKTLVHSYLQFLHLLFKSEESKTFLALAYITGILPIKKIKDESALNNFREFTMLKSKQLTRYFGFTEDEVKKLCITYDMDFESIKAWYNGYLIDGLHMYNPNSVVQAMLDHDYDFYWKNTSSFESINTFITMNYAGLKDDVLAMLSGDKIRVNVNTFQNDLTTVASKDDALTALIHLGYLAYDANRKMAYIPNYEVAAAYDLALQTGSWSEVANSISKCDELLDATLNEDADKVAELVEIAHETYTSVLKYNDENSLSCALTMAYFTANAYYNIVREFPAGKGFADLVFIPRANACGRPAIVIELKYNASADSAISQIKNRRYHGALSGYSNQILLVGINYSNTSDNKKHTCIIESINNLD
MGSDKIHHHHHHMGKAMDLPAETREAANNVIKMQRDADWQNDFKKNSDDGIKTQSLYNIRLIMEHDEMLKGLVAFDEFSEQIVKTPQAENSLFKKGFWNDGDDTLLRSYIEDHYNLLFSKENITDAVVTEARRKTINPVKARIEAVEWDGQPRAERYFINYLGAEDNHYTRTITKKWLTGLIARAYVPGVKFEIVPILEGSQGLGKSTAGKNLYPDKFNDSLKGMGKQKDDYQQLQGSWIIEVAELSAMKKTDIEGIKNFISAQSDTYRNSYGRYALPHPRKCVFIGTTNQTDYLKDATGERRFYPIKCGVNKAKLDVWHPDENYMLQVLAEAAYWFKNGEPLYLDQATMKEAKAYQMAAEAVDPMRDAIEAFLAMEVPTDWENMSTSLKQSYVSDYGHHSKWLQDQVSNERKLLNQTTTREIMEVVFHKTVDRYLTGRTNSEAKRIKLLMDNMDGWKSQRIRMNGQRLHGYMREV
MGSDKIHHHHHHMGLAFEHVTLGQRVLFGTGTAAPSLASEVARLGARRVMVITSNRARETAYRIAADVEVALWHHDVAMHVPIETARKARAAAGEHGIDLLVCVGGGSTTGLAKAIAMTLRLPIIAVPTTYAGSEATNVWGLTEASRKTTGVDDAVLPVTVIYDAALTLALPVAMSVASGLNGIAHCIDSMWAPGADPINAALGAEGIRALSHGLPLIAEDPAGTEGREQALYGAYLSAVAFASAGSGLHHKICHVLGGAFNLPHAQVHATVLPYVLAFNAPYASDSEARIAAAFGTADALTGLQELRNRLDAPKALSDYGLTADGAAEAAAVVQPTVPASNPRPVTTENLTRLLQAALSGEDPRCLLEH
MGSDKIHHHHHHMGNYLVLQSDFGLSDGAVSAMYGVAYTVSDDIRVENLTHDIPPYDIWVASYRLYQTVKYWPKGTVFVSVVDPGVGSDRRSIACLTYSGHYIITPDNGSLSHIKHYEGIKKVIEIDEVKSRLPHSEESHTFHGRDVYAYNGARLAANKIAFERLGQAINVDSIEALEIREATKNEDSVTGSIDILDIRFGSLWTNIPLAFLKSLEIVHGNNLVVTIYHQDKKVYQNIIKFARSFADVNVGEPLVYVNSLVNIGVAVNQDSFSDLYHIGTGNDWTIHLSKAPSI
MGSDKIHHHHHHMGRLKTVKLVLLHTSFNLFYQFFYKVFGPKKGRITLATMRSGQLNDNLAALEQGLKTANVKPVTVFCYHYDRTLAGKVGFLLASIKALYVIARADVFVIDDYFFPLYAIHKHDDNQVVQLWHAIGSLKKFGLSLPNADQSVMKPHTNYDWVLINAKSDQPAYLDAMAINQDHVIATGSPMVDSLLNRQPQQPRLAARRILYSPTYRQGVQGKQQVMGYVNNMIAACQQLTGPWELYISLHPYLKLSAMTLPSNVHIFQDAERVKTLMPTIDLFITDYSSLSLTFSYFERPIILYTPDYDDYMQTSGFYVDYYQYLQAPHFSKAARVVDFINQEVDHMDLSYVHELKQKTFPHQDGHNTERVVQFVEKLAGGEH
MGSDKIHHHHHHMGSLNMPPLDFDAQKTPHIADLRSPQCRNCDIVREIAFCADLSPDEVKRLATVRCHAALPASFTVFREGDEVDHVYSISAGAVKLYKLMPDGRRQIIGFLFSGDLFGLGIDGGYCYTAETITPTHLCRFTHRKLDSLIAEIPRLERRMFTMAVKDLVSAQDQMLLLGRKTAREKVATFLLRLSRRSIQMGLPPSPVALPMSRADIADYLGLTIETVSRTFTQLKRDGIIGLPASGHCIVNDWEALRELAEGG
MGSDKIHHHHHHMGSPYIQARLSQIGDLMSFGIIQLDYEEVLAKHYRRWIQPGDTVIDVGAHLGLHLSRFIELAGPTGQVIGFEPLPFAFDILSTQHACPTLTLNNVALAHEPGHAEFTFAQGSPGESGLRKRLYISPETVTPTLIPVKVDTLDMHTENLRSVDYIKIDIEGGEIGCLEGATRTIDKFRPLISTEYGYPSYSVYGLTKDSLFNFASSKNYVLFDIFLNRIDTRDEWHIVCDSICWDYFLVPAEKLDVFTERVARRAF
MGSDKIHHHHHHMGSQAIVTGASGFIGSSVARMLAHKGWTVHGIGSSHLAMEAQEQIGIKHWVQQDLTLASLQGLADKTGDPDIIIHCAGGSSVQASISNPYEDFARTANATLNVLEFMRRYSPASALVYPSSAAVYGQTSSLPIAESSTPKPFSPYGHHKRIAEILCESYSLQWQLSVSIVRLFSVYGAGLKKQLLWDACQKAEQGAYSFFGSGAEIRDWLHVEDASNLLILAAEYASPECVIINGGSGVGTSINEILKLVGSHFALVSAPTFSGKAREGDPDSYVADITKAQALGFIPSFSLSDGIRQYVEWFKKECML
MGSDKIHHHHHHMHDYYQLVTVADLPQDNRQILDTLTAIGAGKLPNDLRLLNYYRSIPVNYGATVESVERGSVELTVNQQQAIVMQLEKQVFLKSGHFPKDVLAAVTYVNIDKSVAILANFAYAVIRSERRQFVRVEVKDKIEASFSGDGFTVAGLLNDISLGGVAISATIPTHPDAGIKGKVTLRLPGGPFEMPAQVLRVIPAYYTDLCIIEIQPDNRTEKGISQYIFQRQVEIIRELKDSIF
